Assay [1] has as its target T1, human death receptor 5 (hDR5) (human, UniProt O14763 56-210).
T1 construct: also called DR5 long; hDR5-1f
The assay can be described thus: competitive phage ELISA.

The target of assay [2] is T2, HER2 extracellular domain (Her2-ECD) (human, UniProt P04626 23-652).
T2 construct: extracellular domain; also called hHER2 extracellular domain (ECD)
The assay can be described thus: equilibrium KD; method and format (Fab or IgG) not given; HER2, second number of the cell.

Assay [3] addresses T2, HER2 extracellular domain (Her2-ECD). The assay can be described thus: competitive phage ELISA. Background: An ELISA detects its analyte on a solid surface through an enzyme-linked reagent.
For assay [4], the target named is T1, human death receptor 5 (hDR5). The assay can be described thus: equilibrium KD; method and format (Fab or IgG) not given.
Another assay concerns the target T3, hVEGF165 (human, UniProt P15692-4 27-191).
T3 construct: also called human VEGF165
The assay can be described thus: ELISA on immobilised target.

Assay [5] concerns the target T4, hVEGF109 (human, UniProt P15692 214-315).
T4 construct: range 8-109; also called VEGF (8-109)
T4 sequence (looked up): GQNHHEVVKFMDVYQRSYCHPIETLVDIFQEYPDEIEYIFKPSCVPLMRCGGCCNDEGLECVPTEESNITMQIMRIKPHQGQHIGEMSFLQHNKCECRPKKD
In words: ELISA on immobilised target.

The next assay deals with T5, murine VEGF (mVEGF) (murine, UniProt Q00731-2 27-190).
T5 sequence (looked up): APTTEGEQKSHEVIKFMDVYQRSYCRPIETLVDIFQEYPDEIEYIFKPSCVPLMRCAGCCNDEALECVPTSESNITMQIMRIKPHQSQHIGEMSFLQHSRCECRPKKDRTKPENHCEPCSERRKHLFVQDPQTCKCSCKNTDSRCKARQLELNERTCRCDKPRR
In words: ELISA on immobilised target.

Assay [6] addresses T6, human vascular endothelial growth factor (hVEGF) (human, UniProt P15692-4 27-191).
T6 construct: also called hVEGF-A; human vascular endothelial growth factor A
In words: ELISA on immobilised protein.

For a further assay, the target named is T7, hVEGF-C (human, UniProt P49767 103-227).
T7 sequence (looked up): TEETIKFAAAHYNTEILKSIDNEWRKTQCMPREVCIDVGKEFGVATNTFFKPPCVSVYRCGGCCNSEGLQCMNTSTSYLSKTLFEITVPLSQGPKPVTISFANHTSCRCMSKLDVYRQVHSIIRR
In words: ELISA on immobilised protein.

The target in the next assay is T8, hVEGF-D (human, UniProt O43915 93-201).
T8 sequence (looked up): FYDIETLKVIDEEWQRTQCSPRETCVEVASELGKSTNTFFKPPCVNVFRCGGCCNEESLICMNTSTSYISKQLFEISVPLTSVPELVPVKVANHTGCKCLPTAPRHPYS
In words: ELISA on immobilised protein.

The target in assay [7] is bovine serum albumin (BSA) (bovine, UniProt P02769 25-607). In words: ELISA on immobilised protein.
The target of assay [8] is T9, epidermal growth factor receptor extracellular domain (hEGFR) (human, UniProt P00533 25-645).
T9 construct: extracellular domain
In words: ELISA on immobilised protein.

Assay [9] has as its target T2, HER2 extracellular domain (Her2-ECD). The assay can be described thus: ELISA on immobilised protein.
The target of assay [10] is T6, human vascular endothelial growth …. In words: competitive phage ELISA.
For assay [11], the target named is T2, HER2 extracellular domain (Her2-ECD). In words: single-spot competitive phage ELISA.
In assay [12] the target is T6, human vascular endothelial growth …. The assay can be described thus: competitive phage ELISA. This is another data set of the same source.
Assay [13] concerns the target T4, hVEGF109. In words: single-spot competitive phage ELISA.
Assay [14] addresses T4, hVEGF109. In words: Biacore SPR. For orientation: Surface plasmon resonance follows binding to a sensor surface in real time, without labels.
The target in assay [15] is T2, HER2 extracellular domain (Her2-ECD). In words: single-spot competitive phage ELISA. The source holds these as a separate data set.

Where a chain is given by its changes, count along the chain named. “And” between values parts separate entries of the source, which are not always exact repeats. Identical values can stand only once. Like-named read-outs stand apart in the source and are kept apart here. Bounds are passed on as bounds.

Results on 16 molecules are retold here after patent US20220033515A1 (Genentech, published 2022).

The term IC50 denotes the midpoint of a concentration-inhibition curve. In general, Kd refers to the constant that tells how readily two partners part at equilibrium. Higher therefore signals weaker binding. The koff is the rate constant with which the complex falls apart. The kon is the second-order rate constant of association.

B1: 4-4 (scFv, V domains shown)
VH: not shown
VL: DIQMTQSPSSLSASVGDRVTITCRASQVVSMTVAWYQQKPGKAPKLLIYGASSLYSGVPSRFSGSGSGTDFTLTISSLQPEDFATYYCQQYGSYSAPPTFGQGTKVEIK
Turning to B1, the IC50 in assay [1] was greater than 1000 nM.

B2: 4-6 (scFv, V domains shown)
VH: not shown
VL: DIQMTQSPSSLSASVGDRVTITCRASQSVSSAVAWYQQKPGKAPKLLIYSASSLYSGVPSRFSGSRSGTDFTLTISSLQPEDFATYYCQQYSSSPPTFGQGTKVEIK
B2: the concentration for half-maximal inhibition (IC50) in assay [1] came to 16 nM.

B3: bD2 (antibody, V domains shown)
VH: not shown
VL: DIQMTQSPSSLSASVGDRVTITCRASQNIRNGGGLAWYQQKPGKAPKLLIYSASFLYSGVPSRFSGSGSGTDFTLTISSLQPEDFATYYCQQHYTTPPTFGQGTKVEIKR
B3: the Kd in assay [2] stood at 100 nM; in assay [4], 67000 nM. Also, in [3], the IC50 is 17 nM.

B4: bD2 IgG (antibody, V domains shown)
VH: not shown
VL: B3 VL
notes: not shown: rest of the human IgG heavy chain constant region
As to B4, the binding result with hVEGF165 is “no binding (tested: 100 nM (text))”; with hVEGF109 [5] it was “no binding (tested: 100 nM (text))”; with murine VEGF (mVEGF) it was “no binding (tested: 100 nM (text))”; in assay [6] it was “no binding (tested: 100 or 500 nM (text))”; with hVEGF-C, “no binding (tested: 100 or 500 nM (text))”; with hVEGF-D, “no binding (tested: 100 or 500 nM (text))”. Further, the binding result in assay [7] and in assay [8] was “no binding (tested: 100 or 500 nM (text))” each time.

B5: bD1 (antibody, V domains shown)
VH: not shown
VL: DIQMTQSPSSLSASVGDRVTITCRASQNVSKHVAWYQQKPGKAPKLLIYWGSYLYSGVPSRFSGSGSGTDFTLTISSLQPEDFATYYCQQSYSGPPTFGQGTKVEIKR
As to B5, the Kd in assay [2] was found to be 200 nM; in assay [4] it was 14000 nM. In assay [3], this molecule yielded a half-inhibitory concentration (IC50) of 30 nM.

B6: 4-5 IgG (antibody, V domains shown)
VH: not shown
VL: DIQMTQSPSSLSASVGDRVTITCRASQNVGRPVAWYQQKPGKAPKLLIYGGSSLYSGVPSRFSGSGSGTDFTLTISSLQPEDFATYYCQQYGSFGTPPTFGQGTKVEIKR
notes: as for B4
Regarding B6, the binding result with hVEGF165 is reported as “no binding (tested: 100 nM (text))”; with hVEGF109 [5], “no binding (tested: 100 nM (text))”; with murine VEGF (mVEGF), “no binding (tested: 100 nM (text))”; in assay [9], “no binding (tested: 100 or 500 nM (text))”; in assay [6], “no binding (tested: 100 or 500 nM (text))”; with hVEGF-C, “no binding (tested: 100 or 500 nM (text))”. Besides, the binding result (in the assay with hVEGF-D; in assay [7]; in assay [8]) was “no binding (tested: 100 or 500 nM (text))” throughout.

B7: 4-5 (antibody, V domains shown)
VH: not shown
VL: B6 VL
In turn, B7 yielded a dissociation constant Kd in [4] of 150 nM.

B8: 3-4 (scFv, V domains shown, not shown: large carriers; small tags and cut ends)
VH: not shown
VL: DIQMTQSPSSLSASVGDRVTITCRASQEVYSYVAWYQQKPGKAPKLLIYPASSLYSGVPSRFSGSGSGTDFTLTISSLQPEDFATYYCQQGFWIGPPTFGQGTKVEIK
notes: also called c3-4
As for B8, the IC50 in [10] stood at 32 nM. In assay [11], the OD450 without competitor came out at 0.05.

B9: H10 (scFv, V domains shown)
VH: not shown
VL: DIQMTQSPSSLSASVGDRVTITCRASQDVFTSVAWYQQKPGKAPKLLIYDASYLYSGVPSRFSGSGSGTDFTLTISSLQPEDFATYYCQQRYIWAPPTFGQGTKVEIK
Turning to B9, the IC50 in [12] worked out at 170 nM. For the same molecule, in the assay with hVEGF109 [13], the “% signal, SSC +/- 50 or 100nM VEGF” value is 49% and the OD450 without competitor was 2.08. The OD450 without competitor in assay [11] worked out at 0.04.

B10: H7 (scFv, V domains shown)
VH: not shown
VL: B8 VL with E28N, Y30W, S31D, Y32W, F92W, W93Y, G95A
notes: copies: 1 + 1
As to B10, the IC50 in assay [12] stood at 60 nM.

B11: 3-7 (antibody, V domains shown)
VH: not shown
VL: B8 VL with E28Y, V29I, Y30W, S31R, P50W, A51G, F92L, I94Y, G95S
notes: also called 3-7 hIgG; 3-7 anti-hVEGF
Take B11: in assay [10], the IC50 is 16 nM. In the assay with hVEGF109 [14], the Kd is 3 nM and 7 nM; the koff is 0.0025 s⁻¹ and 0.0042 s⁻¹; the association rate constant (kon) is 800000 M⁻¹ s⁻¹ and 580000 M⁻¹ s⁻¹.

B12: 4-1 IgG (antibody, V domains shown)
VH: not shown
VL: DIQMTQSPSSLSASVGDRVTITCRASQDIWNRRALAWYQQKPGKAPKLLIYEGSSLYSGVPSRFSGSGSGTDFTLTISSLQPEDFATYYCQQGGSYSSPPTFGQGTKVEIKR
notes: as for B4
On to B12, for which the binding result in the assay with hVEGF165 is on record as “no binding (tested: 100 nM (text))”; in the assay with hVEGF109 [5] it was “no binding (tested: 100 nM (text))”; in the assay with murine VEGF (mVEGF), “no binding (tested: 100 nM (text))”; in assay [9] it was “no binding (tested: 100 or 500 nM (text))”; in [6], “no binding (tested: 100 or 500 nM (text))”; with hVEGF-C, “no binding (tested: 100 or 500 nM (text))”. The binding result (with hVEGF-D; in assay [7]; in assay [8]) was “no binding (tested: 100 or 500 nM (text))” throughout.

B13: 4-1 (antibody, V domains shown)
VH: not shown
VL: B12 VL
notes: also called 4-1 anti-hDR5
Regarding B13, in assay [4], the affinity, expressed as Kd, was 120 nM.

B14: 4-2 (scFv, V domains shown)
VH: not shown
VL: DIQMTQSPSSLSASVGDRVTITCRASQRINSHTVAWYQQKPGKAPKLLIYWGSHLYSGVPSRFSGSGSGTDFTLTISSLQPEDFATYYCQQYSNRTPPTFGQGTKVEIK
The molecule B14 came in with an IC50 in [1] greater than 1000 nM.

B15: H8 (scFv, V domains shown)
VH: not shown
VL: DIQMTQSPSSLSASVGDRVTITCRASQEIFPYYVAWYQQKPGKAPKLLIYLGSSLYSGVPSRFSGSGSGTDFTLTISSLQPEDFATYYCQQGWDGPPTFGQGTKVEIK
B15 came in with a half-maximal inhibitory concentration (IC50) in assay [12] of 226 nM. Besides, in the assay with hVEGF109 [13], the “% signal, SSC +/- 50 or 100nM VEGF” value was determined as 71.2% and the OD450 without competitor was determined as 2.58. In assay [11], the OD450 without competitor stood at 0.09.

B16: H11 (scFv, V domains shown)
VH: not shown
VL: DIQMTQSPSSLSASVGDRVTITCRASQDIMLGSVAWYQQKPGKAPKLLIYWGSFLYSGVPSRFSGSGSGTDFTLTISSLQPEDFATYYCQQHYTTPPTFGQGTKVEIK
Regarding B16, the OD450 without competitor in [15] amounted to 2.79.
